Measured values taken from patent US5610063A, “cDNA for α-N-acetyl-galactosaminidase from Gallus domesticus” (Curators of the University of Missouri, priority 1995, dated 1997).
Residue numbers refer to the chain shown, from its start. “Also recorded” adds a separate entry of the source.

What was measured:
[1] = molecular target: T1, Gallus N-acetyl-α-D-galactosaminidase (Gallus gallus, UniProt Q90744); experiment: Kinetic parameters (Km, turnover number) of Gallus enzyme; type: biochemical, Gallus domesticus; settings: Example 1 preparation
T1 construct: the cDNA clone corresponds to the region of the mRNA encoding the mature polypeptide for the chicken α-N-acetyl-galactosaminidase; from tissue; host or cells: chicken liver
T1 sequence (Q90744 1-405 S162A): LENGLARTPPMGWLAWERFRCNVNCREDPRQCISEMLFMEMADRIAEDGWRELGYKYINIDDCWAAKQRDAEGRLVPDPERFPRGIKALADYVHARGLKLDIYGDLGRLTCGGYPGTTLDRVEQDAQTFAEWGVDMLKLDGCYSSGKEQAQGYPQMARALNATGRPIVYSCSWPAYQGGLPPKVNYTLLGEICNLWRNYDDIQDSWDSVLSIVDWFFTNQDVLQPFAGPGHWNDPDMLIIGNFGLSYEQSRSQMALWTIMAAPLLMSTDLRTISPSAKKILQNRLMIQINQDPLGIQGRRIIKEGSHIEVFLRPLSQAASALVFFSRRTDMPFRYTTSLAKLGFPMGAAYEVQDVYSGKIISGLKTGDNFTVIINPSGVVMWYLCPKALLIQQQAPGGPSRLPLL
Description: (§1) Enzymatic activity was quantitated during the purification by measuring production of p-nitrophenol (PNP) from PNP-N-acetyl-α-D-galactosaminide or o-nitrophenol (ONP) from ONP-N-acetyl-α-D-galactosaminide. Enzyme aliquots were incubated in 200 μl of 50 mM Na citrate+1 mg/ml BSA+1.0 mM PNP-N-acetyl-α-D-galactosaminide, pH 3.5, at 37° C. The reactions were quenched with 1.0 ml of 0.25M Na2 CO3 and the OD 405 nm was measured. One unit of activity was defined as 1.0 μmole of substrate hydrolyzed per minute.

[2] = molecular target: T1, Gallus N-acetyl-α-D-galactosaminidase; experiment: Substrate specificity (relative activity); type: biochemical, Gallus domesticus; settings: % of enzyme activity on the corresponding conjugate, 2.5 mM PNP conjugates, pH 3.5
[3] = test system: human α-N-acetyl-galactosaminidase; settings: human enzyme; Schram et al, 1977; cited from earlier work
[4] = substrate: CC(=O)N[C@H]1[C@@H](Oc2ccc([N+](=O)[O-])cc2)O[C@H](CO)[C@H](O)[C@@H]1O; experiment: Kinetic parameters (Km, turnover number) of Gallus enzyme; type: biochemical, Gallus domesticus
[5] = substrate: CC(=O)N[C@H]1[C@@H](Oc2ccccc2[N+](=O)[O-])O[C@H](CO)[C@H](O)[C@@H]1O; experiment: as above; type: biochemical, Gallus domesticus; settings: other: Table III, Example 1 preparation, 50 mM Na citrate + 1 mg/ml BSA, pH 3.5, mean of six determinations, 37.0 °C
[6] = substrate: O=[N+]([O-])c1ccc(O[C@H]2O[C@H](CO)[C@H](O)[C@H](O)[C@H]2O)cc1; experiment: as above; type: biochemical, Gallus domesticus; settings: other: Table III, Example 1 preparation, 50 mM Na citrate + 1 mg/ml BSA, pH 3.5, mean of six determinations, 37.0 °C
[7] = Enzymatic activity quantitated during the purification; type: biochemical; settings: Table V, improved (batch) purification; mean from three different preps
Description: as §1

pH optimum = type: biochemical; settings: for pH optimum: pH 2.0 to 8.0 tested
Description: The pH optima was determined by incubating aliquots of the enzyme in 40 mM Na citrate+40 mM NaH2 PO4 +1 mg/ml BSA+2.5 mM PNP-N-acetyl-α-D-galactosamide, pH 2.0 to 8.0. The ionic strength optimum was determined by incubating aliquots of the enzyme in 2.5 mM Na citrate+1 mg/ml BSA+2.5 mM PNP-N-acetyl-α-D-galactoside+0 to 1.0M NaCl, pH 3.5 and 6.0. The Kms for ONP- and PNP-N-acetyl-α-D-galactosaminide were determined by varying the substrate concentration in 50 mM Na citrate+1 mg/ml BSA, pH 3.5. The native molecular weight was determined by applying a concentrated portion of the enzyme to a 1×45 cm Sephacryl S-200 column equilibrated in 25 mM Na citrate+200 mM NaCl, pH 6.0. SDS polyacrylamide electrophoresis (SDS-PAGE) was performed according to the method of Laemmli and the protein bands developed with Coomassie R-250 (Laemmli, 1970). Amino acid composition was determined on a Beckman amino acid analyzer (Moore et al., 1954).

Ionic strength optimum = type: biochemical
pI by chromatofocusing = type: physicochemical; settings: Example 1 preparation
[8] = Storage stability at 4° C.; type: physicochemical
[9] = Aminopeptidase assay with p-nitroaniline (PNA) substrates; type: biochemical; settings: for Aminopeptidase activity: five PNA substrates
Description: Aminopeptidase assays were performed by incubating aliquots of enzyme with 2.5 mM of various p-nitroaniline (PNA) substrates in 50 mM Na citrate+50 mM NaH2 PO4 +0.1% Triton X-100, pH 5.0 to 8.0 (Macfarlane et al., 1988). The reactions were incubated at 37° C., quenched with 1.0 ml of 0.25M Na2 CO3, and the OD 405 nm was determined. One unit of aminopeptidase activity was defined as 1.0 μmole of PNA hydrolyzed per minute.

resorufin-labeled casein = experiment: Endoprotease (resorufin-labeled casein) assay; type: biochemical; settings: for endoprotease activity, resorufin-labeled casein assay: sensitivity limit 0.01 trypsin BAEE units
Description: (§2) Endoprotease assays were performed by an adaption of the resorufin-labeled casein assay of Twining (Twining, 1984). The limit of sensitivity of this assay was determined using a trypsin standard. Stable, concentrated, detergent-free enzyme was prepared as described herein. Activity against the blood group antigen on erythrocytes was determined by incubating enzyme at 24°-37° C. for 2-8 hours with either erythrocytes equilibrated in 25 mM Na citrate+50 mM NaH2 PO4 +80 mM NaCl, pH 5.6-5.8, or in 2.5-5 mM Na citrate+300 mM glycine, pH 5.4-5.6. The cells were washed with phosphate buffered saline, pH 7.0, then incubated with varying dilutions of polyclonal or monoclonal antibody, as for example anti-A for A erythrocytes. Other antibodies and buffers could be used for other blood groups as is known in the art. Hemagglutination was performed and titer scored by standard methods (Bryant, 1982).

human A2 erythrocytes [10] = experiment: Removal of blood group A epitope from A2 erythrocytes (hemagglutination); type: cell-based; settings: much higher enzyme concentrations are required
Description: as §2
The enzyme was also tested on human A2 erythrocytes. Removal of the terminal N-acetyl-α-D-galactosaminyl residue from the blood group A epitope, {galNAc(α1-3) gal(β1-R) {fuc(α1-2)} glueNAc(β1-R)}, was achieved by the enzyme as shown in FIG. 8. […] Incubation at 37° C. was necessary because dilute concentrations of glycosidase were used.

human A2 erythrocytes [11] = experiment: Erythrocyte indices, hemolysis and morphology after enzyme treatment; type: cell-based
[12] = Selectivity / other glycosidase activities of the enzyme preparation; type: biochemical
[13] = Hata et al., 1992; cited from earlier work
[14] = other: Example 2 batch preparation, pH 3.5, N=3, 37.0 °C
[15] = other: Table III, Example 1 preparation, 50 mM Na citrate + 1 mg/ml BSA, pH 3.5, mean of six determinations, 37.0 °C
[16] = preparations isolated by the invention

What does the source list for `O=[N+]([O-])c1ccc(O[C@H]2O[C@H](CO)[C@H](O)[C@H](O)[C@H]2O)cc1` [PNP-α-D-galactopyranoside]?
Km (in words) [1]: high Km; Relative Activity ([2]; Table IV, Example 1 preparation): 12.74%; Relative Activity ([2]; Table VI, improved purification (Example 2)): 15.79%; Km [3]: 1000 µM

B1: Gallus N-acetyl-α-D-galactosaminidase (Gallus gallus) (protein)
chain: T1 sequence (Q90744 1-405 S162A)
notes: the cDNA clone corresponds to the region of the mRNA encoding the mature polypeptide for the chicken α-N-acetyl-galactosaminidase; from tissue; host or cells: chicken liver
For B1, which Km [4, 14] is on record?
Its Km is 0.86, S.D.=0.03 mM.

What about the kcat [4, 14] of the same molecule?
The kcat was 3318, S.D.=118.5 moles substrate/mole enzyme/minute.

What about the Km [4, 15] of the same molecule?
Its Km is 1190 µM.

And the kcat [4, 15]?
The kcat was 2370 Moles of substrate hydrolyzed per mole of enzyme per minute.

What about the Km [5] of the same molecule?
Its Km is 2400 µM.

And the kcat [5]?
The kcat was 637 Moles of substrate hydrolyzed per mole of enzyme per minute.

And the Km [6]?
The Km was 10700 µM.

What about the kcat [6] of the same molecule?
The kcat was 201 Moles of substrate hydrolyzed per mole of enzyme per minute.

B2: Affinity Concentrate: purified α-N-acetyl-galactosaminidase after affinity column and concentration (Example 2) (protein, UniProt Q90744 1-405, looked up)
Alpha-N-acetylgalactosaminidas …: T1 sequence (Q90744 1-405 S162A) with A162S
Which “Specific Activity” value [7] does the source give for B2 here?
Its value is 71.03 µmol/mg/min.

B3: α-N-acetyl-galactosaminidase: purified exoglycosidase [EC 3.2.1.49] derived from Gallus domesticus (chicken) liver, degrades human blood group A2 epitope (protein, UniProt Q90744 1-405, looked up)
Alpha-N-acetylgalactosaminidas …: T1 sequence (Q90744 1-405 S162A) with A162S
Which “pH range of activity (in words)” value (pH optimum; Example 1 preparation) does the source give for B3 here?
Its value is “broad pH range”.

And the pH optimum (pH optimum; Example 1 preparation)?
The pH optimum was 3.7.

What about the “pH range of activity (in words)” value (pH optimum; Example 2 preparation) of the same molecule?
The value was “broad pH range”.

What about the pH optimum (pH optimum; Example 2 preparation) of the same molecule?
Its pH optimum is 3.4.

And the “effect of ionic strength on activity” value (Ionic strength optimum; Example 1 preparation, high or low ionic strengths, pH 3.7)?
The value was “not strongly inhibited”.

What about the “effect of ionic strength on activity” value (Ionic strength optimum; Example 2 preparation, high / increasing ionic strength (pH 3.5)) of the same molecule?
The value was “unaffected by increasing ionic strength; also recorded: not significantly affected”.

What about the “pI (approximate mean)” value (pI by chromatofocusing) of the same molecule?
Its value is about 8.15.

And the “loss of activity on storage” value ([8]; Example 1 preparation, several months)?
Its value is “less than 10%”.

And the “loss of activity on storage” value ([8]; Example 2 preparation, six months)?
Its value is “less than 5%”.

What about the “stability (in words)” value ([8]; purified enzyme) of the same molecule?
Its value is “stable at 4 °C”.

What about the Aminopeptidase activity ([9]; Example 1 preparation, below limits of detection) of the same molecule?
The Aminopeptidase activity was at most 0.05 units/mg enzyme.

And the Aminopeptidase activity ([9]; Example 2 preparation)?
The Aminopeptidase activity was “less than 0.05 units per mg”.

What about the “aminopeptidase activity (in words)” value [9, 16] of the same molecule?
Its value is “lacked detectable aminopeptidase”.

What about the “"trypsin-like activity"” value (resorufin-labeled casein; Example 1 preparation) of the same molecule?
Its value is “less than 0.78 ng per mg of pure enzyme”.

And the “proteolytic activity (in words)” value (resorufin-labeled casein; Example 1 preparation)?
Its value is “No proteolytic activity was detected”.

And the “endoprotease activity, resorufin-labeled casein assay” value (resorufin-labeled casein; Example 1 preparation)?
The value was at most 0.01 BAEE units/mg enzyme.

What about the “"trypsin-like activity"” value (resorufin-labeled casein; Example 2 preparation) of the same molecule?
Its value is “less than 0.78 ng per mg of pure enzyme”.

What about the “proteolytic activity (in words)” value (resorufin-labeled casein; Example 2 preparation) of the same molecule?
Its value is “no measurable protease activity; also recorded: No proteolytic activity was detected”.

And the “endoprotease activity, resorufin-labeled casein assay” value (resorufin-labeled casein; Example 2 preparation)?
Its value is “less than 0.01 BAEE units/mg enzyme”.

And the “endoprotease activity (in words)” value (resorufin-labeled casein; [16])?
The value was “lacked detectable aminopeptidase and endoprotease activities”.

What about the “deantigenation at lower temperatures and shorter incubations” value (human A2 erythrocytes [10]) of the same molecule?
The value was “achieved deantigenation”.

What about the “morphology of treated cells” value (human A2 erythrocytes [11]) of the same molecule?
The value was “mixed population of normocytes and spiculated cells”.

What about the “change in erythrocyte mean corpuscular volume” value (human A2 erythrocytes [11]; treated human A2 erythrocytes) of the same molecule?
Its value is “insignificant change”.

What about the “change in mean corpuscular hemoglobin” value (human A2 erythrocytes [11]; treated human A2 erythrocytes) of the same molecule?
The value was “insignificant change”.

And the “change in mean corpuscular hemoglobin concentration” value (human A2 erythrocytes [11]; treated human A2 erythrocytes)?
Its value is “insignificant change”.

And the visible hemolysis (human A2 erythrocytes [11]; treated human A2 erythrocytes)?
The visible hemolysis was “little visible hemolysis”.

And the “selectivity (in words)” value ([12]; for PNP-N-acetyl-α-D-galactosaminide)?
Its value is “highly selective”.

And the “other glycosidase activities (in words)” value ([12]; preparations of the inventive isolation methods)?
The value was “lack other detectable glycosidase activities”.

And the “degradation of the human blood group A epitope” value [13]?
Its value is “degrades the human blood group A epitope”.
